Results: US20240174741A1 (IMMUNOME, published 2024)

Columns and labels:
[1] = target: T1, human interleukin-38 (IL-38) (human, UniProt Q8WWZ1 1-152); experiment: BLI (Octet QKe), antibody on anti-mouse Fc biosensors, soluble IL-38, 1:1 model
T1 construct: The Adipogen protein is called full length; also called IL1F10/IL38; IL1F10
T1 sequence (looked up): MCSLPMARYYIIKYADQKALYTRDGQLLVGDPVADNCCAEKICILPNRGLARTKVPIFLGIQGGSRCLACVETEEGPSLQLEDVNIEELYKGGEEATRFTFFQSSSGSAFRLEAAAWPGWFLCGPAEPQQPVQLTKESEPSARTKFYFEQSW
Method: Antibody was loaded to AMC probes, blocked in the kinetics buffer for 1 min (baseline) and dipped into an appropriate IL-38 solution. IL-38 association to antibodies of interest was measured for 180 seconds at 28° C. Biosensors were subsequently dipped into kinetics buffer-containing wells and the protein dissociation was measured for 600 s. KD, Kon and Kdis values were identified using the 1:1 built-in model of the ForteBio's Data Analysis 9 software.

IL-1β = IL-1β (human, UniProt P01584 1-269, limits assumed); experiment: CDI HuProt native protein microarray
Method: (§1) To confirm specificity to IL-38, several lead candidate antibodies (CD1-M3, CD1-M8, NZB-M8) were analyzed in a High-Spec Cross-reactivity Assay using native HuProt arrays (CDI Laboratories). […] of antibody was incubated overnight in a cold room, washed, and probed with anti-human secondary antibodies. Fluorescence intensity (F635) as an indicator of binding was measured for each spot. CDI software quantified the specificity of the antibody to each spot based on a Z-score. Z-score is defined as [F635−(Average F635 on array)]/(Standard deviation of F635 on array). S-score is defined as the difference between the Z-score of a given protein and the Z-score of the next highest protein.

IL-36a = target: T2, IL-36a (human, UniProt Q9UHA7 1-158, limits assumed); experiment: CDI HuProt native protein microarray
T2 sequence (looked up): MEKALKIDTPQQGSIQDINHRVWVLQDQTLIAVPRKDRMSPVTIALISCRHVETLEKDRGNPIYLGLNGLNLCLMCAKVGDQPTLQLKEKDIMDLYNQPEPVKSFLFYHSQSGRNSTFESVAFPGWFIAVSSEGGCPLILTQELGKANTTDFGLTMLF
Method: as §1

IL-36b = target: T3, IL-36b (human, UniProt Q9NZH7 1-164, limits assumed); experiment: CDI HuProt native protein microarray
T3 sequence (looked up): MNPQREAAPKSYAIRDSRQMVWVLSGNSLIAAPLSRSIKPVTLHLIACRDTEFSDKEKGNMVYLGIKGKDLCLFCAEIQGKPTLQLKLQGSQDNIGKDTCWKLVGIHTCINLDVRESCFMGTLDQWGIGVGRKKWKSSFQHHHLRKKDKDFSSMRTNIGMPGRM
Method: as §1

IL-1α = target: T4, IL-1α (human, UniProt P01583 1-271, limits assumed); experiment: CDI HuProt native protein microarray
T4 sequence (looked up): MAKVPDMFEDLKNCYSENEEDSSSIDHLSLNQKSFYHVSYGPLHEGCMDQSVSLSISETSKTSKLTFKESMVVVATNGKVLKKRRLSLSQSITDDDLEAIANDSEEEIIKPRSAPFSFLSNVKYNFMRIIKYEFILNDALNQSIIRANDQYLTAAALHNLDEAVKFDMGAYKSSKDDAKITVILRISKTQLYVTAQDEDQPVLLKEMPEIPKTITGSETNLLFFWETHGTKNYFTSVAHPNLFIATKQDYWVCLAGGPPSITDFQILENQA
Method: as §1

IL-1Ra = IL-1Ra (human, UniProt P18510 26-177, limits assumed); experiment: CDI HuProt native protein microarray
Method: as §1

IL-33 = target: T5, IL-33 (human, UniProt O95760 1-270, limits assumed); experiment: CDI HuProt native protein microarray
T5 sequence (looked up): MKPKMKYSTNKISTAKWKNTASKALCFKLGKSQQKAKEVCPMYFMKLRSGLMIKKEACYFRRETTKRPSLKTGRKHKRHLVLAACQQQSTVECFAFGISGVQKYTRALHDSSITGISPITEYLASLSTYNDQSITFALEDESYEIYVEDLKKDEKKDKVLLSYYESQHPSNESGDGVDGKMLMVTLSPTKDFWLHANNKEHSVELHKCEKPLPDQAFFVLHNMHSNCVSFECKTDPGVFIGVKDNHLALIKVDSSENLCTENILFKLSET
Method: as §1

IL-37 = target: T6, IL-37 (human, UniProt Q9NZH6 1-218, limits assumed); experiment: CDI HuProt native protein microarray
T6 sequence (looked up): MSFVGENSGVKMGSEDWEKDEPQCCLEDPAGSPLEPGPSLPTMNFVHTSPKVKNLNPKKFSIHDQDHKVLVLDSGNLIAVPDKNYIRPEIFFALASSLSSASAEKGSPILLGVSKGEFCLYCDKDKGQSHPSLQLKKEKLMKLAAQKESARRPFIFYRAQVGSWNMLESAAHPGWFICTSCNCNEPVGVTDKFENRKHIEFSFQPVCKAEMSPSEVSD
Method: as §1

IL-36Ra = target: T7, IL-36Ra (human, UniProt Q9UBH0 1-155, limits assumed); experiment: CDI HuProt native protein microarray
T7 sequence (looked up): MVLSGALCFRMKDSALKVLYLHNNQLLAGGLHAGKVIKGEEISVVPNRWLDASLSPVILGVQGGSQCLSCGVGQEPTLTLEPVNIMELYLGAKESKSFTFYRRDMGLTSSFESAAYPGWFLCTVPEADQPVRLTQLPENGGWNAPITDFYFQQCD
Method: as §1

IL-18 = target: T8, IL-18 (human, UniProt Q14116 1-193, limits assumed); experiment: CDI HuProt native protein microarray
T8 sequence (looked up): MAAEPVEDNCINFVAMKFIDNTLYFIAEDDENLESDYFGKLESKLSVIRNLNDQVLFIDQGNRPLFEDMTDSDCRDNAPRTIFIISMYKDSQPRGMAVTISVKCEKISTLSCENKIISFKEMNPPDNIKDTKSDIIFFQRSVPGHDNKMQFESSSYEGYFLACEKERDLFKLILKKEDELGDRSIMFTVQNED
Method: as §1

IL-36g = target: T9, IL-36g (human, UniProt Q9NZH8 1-169, limits assumed); experiment: CDI HuProt native protein microarray
T9 sequence (looked up): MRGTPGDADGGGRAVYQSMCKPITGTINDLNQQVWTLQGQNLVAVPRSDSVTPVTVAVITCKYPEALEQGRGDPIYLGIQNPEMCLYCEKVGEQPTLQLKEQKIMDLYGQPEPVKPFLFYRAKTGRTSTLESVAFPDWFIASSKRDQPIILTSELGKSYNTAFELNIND
Method: as §1

Sequence of IL-1Ra (P18510 26-177 limits assumed): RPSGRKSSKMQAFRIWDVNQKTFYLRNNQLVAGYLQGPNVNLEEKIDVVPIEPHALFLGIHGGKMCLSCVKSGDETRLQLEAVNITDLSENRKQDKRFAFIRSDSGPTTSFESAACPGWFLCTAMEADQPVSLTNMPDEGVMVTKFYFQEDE

- Kd [1]: 0.721 nM
- binding result (IL-1β): no binding
- binding result (IL-36a): no binding
- binding result (IL-36b): no binding
- binding result (IL-1α): no binding
- binding result (IL-1Ra): no binding
- binding result (IL-33): no binding
- binding result (IL-37): no binding
- binding result (IL-36Ra): no binding
- binding result (IL-18): no binding
- binding result (IL-36g): no binding
B1: CD1-M3 (antibody, V domains shown)
VH: EVQLQQSGPELVKPGASVKIPCKASGYTFTDYNMDWVKQSHGKSLEWIGDINPNNGGTIYNQKFKGKATLTVDKSSSTAYMELRSLTSEDTAVYYCSRPYYGYFAYWGQGTLVTVSA
VL: DVVMTQSPLSLPVSLGDQASISCRSSQSLVHSHENTFLHWYLQKPGQSPKLLIYRVSNRFSGVPDRFSGSGSGTDFTLKISRVEAEDLGVYFCSQSTHVPLTFGAGTKLELK
notes: Mouse monoclonal from a hybridoma of a CD-1 mouse immunized with full length recombinant IL-38
